Data set [1] deals with T1, (S)-ureidoglycolate dehydrogenase (AllD) (Escherichia coli, UniProt P77555).
T1 construct: full length, modified pET28b with N-terminal His-tag and TEV site, expressed in E. coli BL21(DE3); tag cut for crystals, kept on mutant enzymes for kinetics; homodimer
In words: X-ray crystal structure, soaking, […] Å. The data set is classed as binding. The settings on record: 100 mM NADH soak, pH 8.1; one NADH in each subunit; site includes residues of the other subunit.

Data set [2] addresses T1, (S)-ureidoglycolate dehydrogenase (AllD). In words: X-ray crystal structure, soaking, […] Å. It counts as binding. The settings on record: ternary complex with NADH; soaked with 7.5 mM oxalurate reaction mixture, glyoxylate modelled in subunit A only, pH 8.1.
Substrate in data set [3]: NC(=O)N[C@@H](O)C(=O)O
Description: purified protein. It counts as biochemical, Escherichia coli. The settings on record: 3 mM NAD+ (saturating), 30 °C, value in parentheses is standard error.

Substrate in data set [4]: NC(=O)c1ccc[n+]([C@@H]2O[C@H](COP(=O)(O)OP(=O)(O)OC[C@H]3O[C@@H](n4cnc5c(N)ncnc54)[C@H](O)[C@@H]3O)[C@@H](O)[C@H]2O)c1
Description: purified protein. As to conditions: 15.3 mM (S)-ureidoglycolate, 30 °C, value in parentheses is standard error. The data set is classed as biochemical, Escherichia coli.

Data set [5] deals with the molecule itself. In words: SEC; size-exclusion chromatography of AllD; conditions not described. Background: In gel filtration, larger molecules generally elute earlier.

Data on 12 molecules can be found in PMC3527362, “Structural and Functional Insights into (S)-Ureidoglycolate Dehydrogenase, a Metabolic Branch Point Enzyme in Nitrogen Utilization” (PLoS ONE, 2012).

Numbering of substitutions follows the chain as printed. Names and notes keep the numbering of the source.

T1 sequence (P77555 whole entry): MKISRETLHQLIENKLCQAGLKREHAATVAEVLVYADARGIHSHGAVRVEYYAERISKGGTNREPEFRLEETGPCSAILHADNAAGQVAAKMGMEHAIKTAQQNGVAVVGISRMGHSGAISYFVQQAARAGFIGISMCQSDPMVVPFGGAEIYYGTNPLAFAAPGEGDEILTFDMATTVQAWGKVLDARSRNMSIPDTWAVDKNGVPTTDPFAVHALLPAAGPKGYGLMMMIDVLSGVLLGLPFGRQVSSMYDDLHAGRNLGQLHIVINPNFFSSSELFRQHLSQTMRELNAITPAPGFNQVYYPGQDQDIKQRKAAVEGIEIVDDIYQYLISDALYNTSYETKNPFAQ

With `NC(=O)C1=CN([C@@H]2O[C@H](COP(=O)(O)OP(=O)(O)OC[C@H]3O[C@@H](n4cnc5c(N)ncnc54)[C@H](O)[C@@H]3O)[C@@H](O)[C@H]2O)C=CC1` [NADH], the “X-ray crystal structure, soaking, 1.64 Å” value in data set [1] is reported as 4H8A for the AllD-NADH binary complex.
As to `O=CC(=O)O` [glyoxylate], the “X-ray crystal structure, soaking, 1.77 Å” value in data set [2] is on record as 4FJU for the AllD-NADH-glyoxylate ternary complex.

B1: (S)-ureidoglycolate dehydrogenase (AllD) (Escherichia coli K-12; Y52F) (protein)
chain: MKISRETLHQLIENKLCQAGLKREHAATVAEVLVYADARGIHSHGAVRVEYFAERISKGGTNREPEFRLEETGPCSAILHADNAAGQVAAKMGMEHAIKTAQQNGVAVVGISRMGHSGAISYFVQQAARAGFIGISMCQSDPMVVPFGGAEIYYGTNPLAFAAPGEGDEILTFDMATTVQAWGKVLDARSRNMSIPDTWAVDKNGVPTTDPFAVHALLPAAGPKGYGLMMMIDVLSGVLLGLPFGRQVSSMYDDLHAGRNLGQLHIVINPNFFSSSELFRQHLSQTMRELNAITPAPGFNQVYYPGQDQDIKQRKAAVEGIEIVDDIYQYLISDALYNTSYETKNPFAQ
notes: full length, modified pET28b with N-terminal His-tag and TEV site, expressed in E. coli BL21(DE3); tag cut for crystals, kept on mutant enzymes for kinetics; homodimer
As a reminder, the kcat is the number of substrate molecules converted per active site and unit of time at saturation. The term kcat/Km denotes the second-order rate constant that governs catalysis at low substrate concentration. B1: in the data set “purified protein [3]” (His-tag kept), the Km is 16.82 (3.92) mM, the kcat amounted to 1.92 s⁻¹ and the kcat/Km came out at 110 M⁻¹ s⁻¹.

B2: (S)-ureidoglycolate dehydrogenase (AllD) (Escherichia coli K-12; S43A) (protein)
chain: B1 chain with S43A, F52Y
notes: as for B1
For the molecule B2, in the data set “purified protein [3]” (His-tag kept), the Km is 10.75 (1.01) mM, the kcat was determined as 1.37 s⁻¹ and the specificity constant (kcat/Km) was determined as 130 M⁻¹ s⁻¹.

B3: (S)-ureidoglycolate dehydrogenase (AllD) (Escherichia coli K-12; H44A) (protein)
chain: B1 chain with H44A, F52Y
notes: as for B1
B3: in “purified protein [3]” (His-tag kept), the Km is recorded as 16.94 (2.04) mM, the turnover number (kcat) worked out at 1.76 s⁻¹ and the kcat/Km came to 100 M⁻¹ s⁻¹.

B4: (S)-ureidoglycolate dehydrogenase (AllD) (Escherichia coli K-12; R259A) (protein)
chain: B1 chain with F52Y, R259A
notes: as for B1
Regarding B4, in “purified protein [3]” (His-tag kept), the Km is 11.47 (1.25) mM, the kcat amounted to 12 s⁻¹ and the kcat/Km is 1040 M⁻¹ s⁻¹. In “purified protein [4]” (His-tag kept), the Km is reported as 1.49 (0.07) mM, the kcat is 9.29 s⁻¹ and the specificity constant (kcat/Km) came out at 6230 M⁻¹ s⁻¹.

B5: (S)-ureidoglycolate dehydrogenase (AllD) from Escherichia coli (enzyme, Escherichia coli str. K-12 substr. DH10b, UniProt P77555 1-349, looked up)
chain: B1 chain with F52Y
notes: (S)-ureidoglycolate dehydrogenase AllD, product of the allD gene of E. coli str; K-12 substr; DH10b; ordered residues in the crystals Met1 to Tyr337/Asn338 (subunit A); Homodimer; Cloned into a modified pET28b with a TEV site between the His-tag and the multicloning sites; also called EC 1.1.1.154; not shown: His-tag, N-terminal, cleaved
A word on the stoichiometry N: it is a count of units in the complex or per binding partner. In the case of B5, in “purified protein [3]”, the Km is on record as 1.06 (0.08) mM, the kcat amounted to 57.1 s⁻¹ and the kcat/Km stood at 54300 M⁻¹ s⁻¹. Also, in “purified protein [4]”, the Km was 0.56 (0.04) mM, the kcat amounted to 62.4 s⁻¹ and the kcat/Km was found to be 110000 M⁻¹ s⁻¹. The “stoichiometry N” value in data set [5] amounted to 2.

B6: (S)-ureidoglycolate dehydrogenase (AllD) (Escherichia coli K-12; D141E) (protein)
chain: B1 chain with F52Y, D141E
notes: as for B1
Regarding B6, in “purified protein [3]” (His-tag kept), the Km is 14.13 (2.37) mM, the turnover number (kcat) stood at 1.67 s⁻¹ and the kcat/Km is 120 M⁻¹ s⁻¹.

B7: (S)-ureidoglycolate dehydrogenase (AllD) (Escherichia coli K-12; S140A) (protein)
chain: B1 chain with F52Y, S140A
notes: as for B1
On to B7, for which, in “purified protein [3]” (His-tag kept), the Km is listed as 12.38 (2.19) mM, the kcat was 1.29 s⁻¹ and the catalytic efficiency (kcat/Km) was 100 M⁻¹ s⁻¹.

B8: (S)-ureidoglycolate dehydrogenase (AllD) (Escherichia coli K-12; D141A) (protein)
chain: B1 chain with F52Y, D141A
notes: as for B1
B8: in the data set “purified protein [3]” (His-tag kept), the Km was 5.27 (0.46) mM, the kcat came to 1.62 s⁻¹ and the kcat/Km worked out at 310 M⁻¹ s⁻¹.

B9: (S)-ureidoglycolate dehydrogenase (AllD) (Escherichia coli K-12; D141N) (protein)
chain: B1 chain with F52Y, D141N
notes: as for B1
As for B9, in the data set “purified protein [3]” (His-tag kept), the Km is listed as 5.84 (0.25) mM, the catalytic constant (kcat) was determined as 1.97 s⁻¹ and the specificity constant (kcat/Km) is 340 M⁻¹ s⁻¹.

B10: (S)-ureidoglycolate dehydrogenase (AllD) (Escherichia coli K-12; M251A) (protein)
chain: B1 chain with F52Y, M251A
notes: as for B1
With B10, in the data set “purified protein [3]” (His-tag kept), the Km is listed as 13.15 (1.62) mM, the catalytic constant (kcat) was determined as 46 s⁻¹ and the kcat/Km worked out at 3490 M⁻¹ s⁻¹.
